Data: patent publication US20220395553A1 (COHBAR, published 2022)
Square brackets hold non-standard residues; d marks the D form. Ends that are not written are not given here.

Experiments:
[1] = molecular target: ProLink tagged human CXCR4 (C2C12 CXCR4 β-Arrestin cell line) (human, UniProt P61073 1-352); assay: cell-based or functional assay
[2] = molecular target: T1, SNAP tagged-CXC4 receptor labeled with terbium (Tag-lite CXCR4 cells, HEK293) (UniProt P61073 1-352, SNAP tag labeled with terbium fluorescent dye); assay: HTRF competition on Tag-lite CXCR4 HEK293 cells; competitor labelled CXCL12
T1 construct: whole, on cells; Bought frozen cells (PerkinElmer-CisBio), HEK293 transiently expressing the receptor; also called terbium labeled CXCR receptor
Description: Peptides were initially prepared as 1 mM stock in H₂O and tested at a final concentration of 400 nM. Following the manufacture's protocol, a frozen aliquot of Tag-lite CXCR4 cells was thawed and immediately seeded onto 384-well plates in TLB. Immediately following the addition of cells, 400 nM peptide (final concentration) in TLB was added to the appropriate well. […] The plates were covered in aluminum foil and left at room temperature for 3 hours. Following the 3 hour incubation period, the plates were removed from the incubator and fluorescence measured using a Cytation 1 plate reader using a HTRF filter cube ([…]; BioTek; Winooski, Vt.).

[3] = molecular target: CXCR4 on cultured U937 and Jurkat cells (human, UniProt P61073 1-352); assay: cell-based or functional assay
Chain of CXCR4 on cultured U937 and Jurkat cells (P61073 whole entry): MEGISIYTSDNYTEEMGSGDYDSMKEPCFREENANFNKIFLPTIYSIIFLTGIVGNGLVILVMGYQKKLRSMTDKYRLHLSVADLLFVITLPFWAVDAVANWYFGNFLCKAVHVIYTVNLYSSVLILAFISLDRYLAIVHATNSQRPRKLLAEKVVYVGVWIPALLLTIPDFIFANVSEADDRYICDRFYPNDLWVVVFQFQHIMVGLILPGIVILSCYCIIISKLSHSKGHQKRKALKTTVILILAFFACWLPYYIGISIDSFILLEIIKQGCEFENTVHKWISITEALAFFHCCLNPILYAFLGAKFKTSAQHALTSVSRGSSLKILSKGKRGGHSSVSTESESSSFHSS

T1 sequence (P61073 whole entry): as above
Chain of ProLink tagged human CXCR4 (C2C12 CXCR4 β-Arrestin cell line) (P61073 whole entry): as above

Binder | IC50 for Inhibition of CXCR4 Activation (β-Arrestin recruitment) [1] | Percent Inhibition of CXCR4/CXCL12 Binding (400 nM peptide) [2] | Percent Inhibition of CXCR4/CXCL12 Induced p-MEK (100 nM Test Article) [3] | Percent Inhibition of CXCR4/CXCL12 Induced p-MEK (1 µM Test Article) [3]
LRRYHHSVRSSLEPYTK [SEQ ID NO: 63] | 14 nM | 9% |  | 
LRRYHHSVESSLRPYTK [SEQ ID NO: 62] | 64 nM | 4% |  | 
LERYNHSVRSSLRPYTK [SEQ ID NO: 42] | 22 nM | 32% |  | 
LRRYHHSVRSSLRPY [SEQ ID NO: 25] | 51 nM | 0% |  | 
LRRYHHS[dA]ESSLRPYTK [SEQ ID NO: 64] | 14 nM | -6% |  | 
HSVRSSLRPYTK [SEQ ID NO: 14] | > 1000 nM | -15% |  | 
LRDYHHS[dA]RSSLRPYTK [SEQ ID NO: 37] | > 1000 nM | -14% |  | 
LRRYHHSVRSSLRP [SEQ ID NO: 26] | 67 nM | 1% |  | 
YHHSVRSSLRPYTK [SEQ ID NO: 12] | > 1000 nM | -13% |  | 
LRRYHHSVRSS [SEQ ID NO: 29] | 46 nM | 14% |  | 
LERYHHSVRSS [SEQ ID NO: 23] | 28 nM | 23% |  | 
RYHHSVRSSLRPYTK [SEQ ID NO: 11] | 175 nM | -9% |  | 
LERYHNSVRSSLRPYTK [SEQ ID NO: 45] | 121 nM | 1% |  | 
LERYHNS[dA]RSSLRPYTK [SEQ ID NO: 46] | 187 nM | -4% |  | 
HHSVRSSLRPYTK [SEQ ID NO: 13] | > 1000 nM | -10% |  | 
LRRYHHS[dA]RSSLDPYTK [SEQ ID NO: 69] | 63 nM | -5% |  | 
LRRYHHS[dA]RSSLEPYTK [SEQ ID NO: 65] | 40 nM | -5% |  | 
LRRYHQSVRSSLRPYTK [SEQ ID NO: 50] | 121 nM | -5% |  | 
SVRSSLRPYTK [SEQ ID NO: 15] | > 1000 nM | -11% |  | 
LRRYHNSVRSSLRPYTK [SEQ ID NO: 44] | 32 nM | 0% |  | 

Binder | IC50 for Inhibition of CXCR4 Activation (β-Arrestin recruitment) [1] | Percent Inhibition of CXCR4/CXCL12 Binding (400 nM peptide) [2] | Percent Inhibition of CXCR4/CXCL12 Induced p-MEK (100 nM Test Article) [3] | Percent Inhibition of CXCR4/CXCL12 Induced p-MEK (1 µM Test Article) [3]
LERYHQSVRSSLRPYTK [SEQ ID NO: 51] | 134 nM | -2% |  | 
LRRYHHSVRSSLRPYT [SEQ ID NO: 24] | 102 nM | 8% |  | 
LRRYHHS[dA]DSSLRPYTK [SEQ ID NO: 68] | 13 nM | -10% |  | 
LREYHHS[dA]RSSLRPYTK [SEQ ID NO: 32] | > 1000 nM | -18% |  | 
LRRYHHSVRSSLR [SEQ ID NO: 27] | 34 nM | 10% |  | 
LERYQHS[dA]RSSLRPYTK [SEQ ID NO: 49] | 66 nM | 20% |  | 
LERYHHSVRSSLRPY [SEQ ID NO: 19] | 19 nM | 44% |  | 
LERYHHSVRSSL [SEQ ID NO: 22] | 17 nM | 14% |  | 
LRRYHHS[dA]RSSLRPYTK [SEQ ID NO: 6] | 8 nM | -10% |  | 
LERYQHSVRSSLRPYTK [SEQ ID NO: 48] | 53 nM | 13% |  | 
LERYHHT[dA]RSSLRPYTK [SEQ ID NO: 40] | 5 nM |  | 33% | 94%
RRYHHSVRSSLRPYTK [SEQ ID NO: 10] | 103 nM | -8% |  | 
LRRYHHSVRSSL [SEQ ID NO: 28] | 4 nM | 12% |  | 
LREYHHSVRSSLRPYTK [SEQ ID NO: 31] | > 1000 nM | -16% |  | 
LERYHHSVRSSLR [SEQ ID NO: 21] | 16 nM | 20% |  | 
LRRYQHSVRSSLRPYTK [SEQ ID NO: 47] | 11 nM | 5% |  | 
LERYHQS[dA]RSSLRPYTK [SEQ ID NO: 52] | 121 nM | -2% |  | 
LERYHHSVRSSLRP [SEQ ID NO: 20] | 37 nM | 37% |  | 
LRRYNHSVRSSLRPYTK [SEQ ID NO: 41] | 4 nM | -2% |  | 
